What all share (format): cell-based
The subject of series [1] is rat primary small intestinal IEC-6 cells. The series is described as follows: Uptake of FM4-64-labeled milk exosomes into IEC-6 cells. The settings on record: exosomes treated with 0.105 mMol/L trypsin for 30 mins. The method, then:
Caco-2 cells and IEC-6 cells were seeded at a density of 20,000 and 7000 cells/well, respectively, in 96-well plates, and allowed to adhere for 48 h, when cells were 75% confluent. The exosomes were labeled with the fluorophore, FM 4-64 (Molecular Probes). One microliter of a stock solution of FM 4-64 (5.9 mmol/L) was added to 1 mL of exosome suspension and incubated for 15 min at 37° C., and excess FM 4-64 was removed by ultracentrifugation at 120,000 3 g at 4° C. for 90 min. […] Assays were calibrated by quantifying the fluorescence of a known mass of exosomes labeled with FM 4-64. Exosome uptake was analyzed by measuring the cell fluorescence at 515 (excitation) and 640 nm (emission) using a Biotek FLx800 plate reader (BioTek Instru-ments). Fluorescence readings were corrected for cell autofluorescence by subtracting signals measured in cells incubated with exosome-depleted media. […] In Caco-2 cells, exosome uptake was linear for up to 120 min if transport was measured using nonsaturating substrate concentrations (FIG. 33A): y=0.0012x+0.014 (r2=0.97; P<0.05). In IEC-6 cells exosome uptake was linear for only up to 60 min if transport was measured using nonsaturating substrate concentrations (FIG. 33B): y=0.0033x+0.033 (r2=0.75; P<0.05). […]

In series [2] the test system is human colon carcinoma Caco-2 cells. Also noted: exosome uptake: dose or concentration left out as unconfirmed. The method, then:
Caco-2 cells and IEC-6 cells were seeded at a density of 20,000 and 7000 cells/well, respectively, in 96-well plates, and allowed to adhere for 48 h, when cells were 75% confluent. The exosomes were labeled with the fluorophore, FM 4-64 (Molecular Probes). One microliter of a stock solution of FM 4-64 (5.9 mmol/L) was added to 1 mL of exosome suspension and incubated for 15 min at 37° C., and excess FM 4-64 was removed by ultracentrifugation at 120,000 3 g at 4° C. for 90 min. Transport studies were conducted using FM4-64-labeled exosomes using 3-110 mg of exosomal protein/well (Caco-2 cells) or 27-652 mg of exosomal protein/well (IEC-6 cells) and incubating cells for various periods of time to assess saturation kinetics; blanks were created using solvent. Assays were calibrated by quantifying the fluorescence of a known mass of exosomes labeled with FM 4-64. Exosome uptake was analyzed by measuring the cell fluorescence at 515 (excitation) and 640 nm (emission) using a Biotek FLx800 plate reader (BioTek Instru-ments). Fluorescence readings were corrected for cell autofluorescence by subtracting signals measured in cells incubated with exosome-depleted media. Transport kinetics was modeled using the Michaelis-Menten equation and nonlinear regression; modeling was conducted using GraphPad Prism 6.0 (GraphPad Software). In Caco-2 cells, exosome uptake was linear for up to 120 min if transport was measured using nonsaturating substrate concentrations (FIG. 33A): y=0.0012x+0.014 (r2=0.97; P<0.05). In IEC-6 cells exosome uptake was linear for only up to 60 min if transport was measured using nonsaturating substrate concentrations (FIG. 33B): y=0.0033x+0.033 (r2=0.75; P<0.05). Subsequent transport studies were conducted using incubation times of 8 hours for Caco-2 cells (FIG. 34B). Transport of milk exosome uptake was also studied in human umbilical vein endothelial cells (HUVECs) human small intestinal cells (FHs cells).
In both mammalian cells, the uptake of bovine milk exosomes was mediated by saturable transport mechanisms. Transport kinetics was modeled using the Michaelis-Menten equation. Exosome uptake was analyzed by measuring the cell fluorescence at 515 (excitation) and 640 nm (emission) using a Biotek FLx800 plate reader (BioTek Instruments) as previously described above. […] When the incubation temperature was decreased from 37° C. to 4° C., the transport rate decreased from 100%+56% to 54%+13% using a substrate concentration of 55.5 μg exosomal protein/200 μL in Caco-2 cells (P<0.05; n=3). Likewise, when the incubation temperature was decreased from 37° C. to 4° C., the transport rate decreased from 100%+11% to 44%+25% using a substrate concentration of 153 μg exosomal protein/200 μL in IEC-6 cells (P<0.05; n=3). Subsequent transport studies were conducted using substrate concentrations of 55 μg/200 mL and 153 μg/200 mL in Caco-2 cells and IEC-6 cells, respectively. […] (N=3; p<0.05). […] FIGS. 37A and 37B show saturation kinetics of milk exosome uptake in human small intestinal cells (FHs cells).
To remove surface protein from milk exosomes, the exosomes were subjected to various proteases, including trypsin, proteinase K, AspN, GluC, ArgC. […] Following protease treatment, the exosomes were subject to ultracentrifugation. The supernatant containing the enzyme cleaved surface peptides were identified using LC-MS/MS using LC/MS-MS and Mascot, and glycoproteins were identified using SwissProt. One way Anova and Bonferroni's Multiple comparison was used to test for statistical significance. The pellet containing the exosomes with its surface proteins removed was resuspended in 1×PBS and used for the transport studies shown in FIGS. 40-43.
The uptake of bovine milk exosomes into human and rat intestinal cells depended on surface proteins in both exosomes and cells. Exosomes were treated with proteases as described above and depicted in FIG. 39. […]

The test system of series [3] is human small intestinal cells (FHs cells). The series is described as follows: Uptake of milk exosomes into FH cells (protease, glycosidase, lectin, sonication).
Series [4] relates to human umbilical vein endothelial cells (HUVEC). The series is described as follows: Uptake of fluorophore-labeled milk exosomes into HUVECs. The settings on record: exosomal surface proteins removed with proteinase K, HUVEC.

Where two headings read alike, the source gives them in different places.

B1: trypsin: Serine protease cleaving at lysine or arginine; applied to exosomes or cells (protein, UniProt P00761 9-231, looked up)
Trypsin: IVGGYTCAANSIPYQVSLNSGSHFCGGSLINSQWVVSAAHCYKSRIQVRLGEHNIDVLEGNEQFINAAKIITHPNFNGNTLDNDIMLIKLSSPATLNSRVATVSLPRSCAAAGTECLISGWGNTKSSGSSYPSLLQCLKAPVLSDSSCKSSYPGQITGNMICVGFLEGGKDSCQGDSGGPVVCNGQLQGIVSWGYGCAQKNKPGVYTKVCNYVNWIQQTIAAN
B1: in series [1], the exosome uptake was 82%±8%. In series [2], the “effect on exosome uptake in Caco-2 cells” value is given as “significant decrease in exosome transport”. In series [2] (exosomes treated with the labelled protease, intestinal transport), the “transport rates (Vmax)” value is 40±0.6 arbitrary units.

B2: PNA: Lectin binding Galβ1-3GalNAcα1-Ser/Thr (protein, UniProt P02872 24-273, looked up)
Galactose-binding lectin: AETVSFNFNSFSEGNPAINFQGDVTVLSNGNIQLTNLNKVNSVGRVLYAMPVRIWSSATGNVASFLTSFSFEMKDIKDYDPADGIIFFIAPEDTQIPAGSIGGGTLGVSDTKGAGHFVGVEFDTYSNSEYNDPPTDHVGIDVNSVDSVKTVPWNSVSGAVVKVTVIYDSSTKTLSVAVTNDNGDITTIAQVVDLKAKLPERVKFGFSASGSLGGRQIHLIRSWSFTSTLITTTRRSIDNNEKKIMNMASA
As to B2, the “effect on exosome uptake in FH cells” value in series [3] (FH cells treated with the labelled agent) and in series [3] (exosomes treated with the labelled agent) was “decreases the uptake” each time.

B3: proteinase K: Non-specific protease used to remove surface proteins from exosomes or cells (protein, UniProt P06873 106-384, looked up)
Proteinase K: AAQTNAPWGLARISSTSPGTSTYYYDESAGQGSCVYVIDTGIEASHPEFEGRAQMVKTYYYSSRDGNGHGTHCAGTVGSRTYGVAKKTQLFGVKVLDDNGSGQYSTIIAGMDFVASDKNNRNCPKGVVASLSLGGGYSSSVNSAAARLQSSGVMVAVAAGNNNADARNYSPASEPSVCTVGASDRYDRRSSFSNYGSVLDIFGPGTSILSTWIGGSTRSISGTSMATPHVAGLAAYLMTLGKTTAASACRYIADTANKGDLSNIPFGTVNLLAYNNYQA
Consider B3, for which the exosome uptake in series [4] was 50 % of controls; in series [2] (CaCo2 cells treated with proteinase K), 18%±16%; in series [2] (exosomes treated with proteinase K) it was 32%±25%. Also, the “decrease of exosome uptake compared with controls” value in series [2] (removal of exosome and cell surface proteins, inhibition of endocytosis/vesicle trafficking, or of glycoprotein binding) is 61-85%.

B4: Arg-C: Cysteine protease cleaving at arginine and lysine (protein, UniProt P09870 51-181; P09870 191-526, looked up)
Clostripain light chain: NKNQKVTIMYYCDADNNLEGSLLNDIEEMKTGYKDSPNLNLIALVDRSPRYSSDEKVLGEDFSDTRLYKIEHNKANRLDGKNEFPEISTTSKYEANMGDPEVLKKFIDYCKSNYEADKYVLIMANHGGGAR
Clostripain heavy chain: AICWDDSNLDKNGEADCLYMGEISDHLTEKQSVDLLAFDACLMGTAEVAYQYRPGNGGFSADTLVASSPVVWGPGFKYDKIFDRIKAGGGTNNEDDLTLGGKEQNFDPATITNEQLGALFVEEQRDSTHANGRYDQHLSFYDLKKAESVKRAIDNLAVNLSNENKKSEIEKLRGSGIHTDLMHYFDEYSEGEWVEYPYFDVYDLCEKINKSENFSSKTKDLASNAMNKLNEMIVYSFGDPSNNFKEGKNGLSIFLPNGDKKYSTYYTSTKIPHWTMQSWYNSIDTVKYGLNPYGKLSWCKDGQDPEINKVGNWFELLDSWFDKTNDVTGGVNHYQW
For the molecule B4, the “effect on exosome uptake in Caco-2 cells” value in series [2] was “significant decrease in exosome transport”.

The values above are taken from patent US11883434B2, “Extracellular vesicles and methods of using” (NUtech Ventures, priority 2017, dated 2024).
